Measurements: patent publication EP0530937A1

Experiments:
[1] = biological target: collagen receptor on MTLn3 cells (rat mammary tumor cells) (rat); assay: adhesion of 51Cr-labelled MTLn3 cells to wells coated with collagen type III with 10 µl Superose-pool (0.5 mg protein/ml)
[2] = biological target: collagen receptor on human platelets (human); assay: adhesion of platelets to a plate coated with collagen type I with 50 µl Superose-pool (0.5 mg protein/ml), 2 mM Mg2+
[3] = biological target: collagen receptor on human platelets (human); assay: adhesion of platelets to a plate coated with collagen type I with 10 µl Superose-pool (0.5 mg protein/ml), 2 mM Mg2+
[4] = biological target: collagen receptor on MTLn3 cells (rat mammary tumor cells) (rat); assay: adhesion of 51Cr-labelled MTLn3 cells to wells coated with collagen type III with 2 µl Superose-pool (0.5 mg protein/ml)
[5] = biological target: collagen receptor on MTLn3 cells (rat mammary tumor cells) (rat); assay: adhesion of 51Cr-labelled MTLn3 cells to wells coated with collagen type III with 5 µl Superose-pool (0.5 mg protein/ml)

- cell attachment (cpm) [1]: 1080 cpm
- adherent platelets per mm² (adherent platelets per mm²) [2]: 6500
- adherent platelets per mm² (adherent platelets per mm²) [3]: 12000
- cell attachment (cpm) [4]: 2070 cpm
- cell attachment (cpm) [5]: 1610 cpm
Substance: collagen-induced platelet aggregation inhibitor from saliva of Triatoma pallidipennis (as saliva or as partially purified "Superose"-pool)
